Experimental findings from patent US20210246218A1 (LYVGEN BIOPHARMA SUZHOU, published 2021) are described below.

The EC50 is the concentration at which the effect is half-maximal. As a reminder, the EC50 (read off the curve) is the concentration needed to bring the measured effect to its halfway point.

In test [1] the target is T1, human CD137 on cells (human, UniProt Q07011 24-255). As to the kind of experiment: cell-based or functional assay.
The target in test [2] is T2, recombinant human CD137 receptor protein (human, UniProt Q07011 24-186).
T2 construct: Coated on ELISA plates; also called recombinant human CD137 protein
The test is described as follows: ELISA, human CD137 protein coated; average, n=6. As for the experimental part: (§1) The human or cynomolgus monkey CD137 receptor protein was diluted in DPBS to 1 μg/mL, and then coated onto an ELISA plate (Corning, Catalog number: 9018, high binding) with a volume of 100 μL (0.1 μg) or 50 μL (0.05 μg) per well, and incubated at 4° C. overnight. The plate was decanted and washed once; assay diluent was added 200 μL/well. After a one-hour incubation at room temperature, the plate was washed with PBST one time. […] The plate was incubated one hour at room temperature and then washed three times with PBST. Goat anti-human IgG-H+L HRP conjugated at 1:100,000 dilution was added to the plate at 100 μL/well. The plate was then incubated one hour at room temperature followed by washing with PBST four times. The TMB substrate solution was added at 100 μL/well. The color was allowed to develop for 15 minutes, and was stopped with 100 μL/well 2N H₂SO₄. Absorbance at 450 nm and 620 nm was determined by a Tecan F200 Pro reader.
(§2) Graphpad 7.0, “[Agonist] vs. response—Variable slope (four parameters)” was used to plot the binding data and calculate binding EC₅₀ values.
On the technique in general: ELISA stands for enzyme-linked immunosorbent assay.

In test [3] the target is T3, cynomolgus monkey CD137 on cells (cynomolgus monkey, UniProt A9YYE7 24-254).
T3 construct: whole, on cells; also called CHO-cynomolgus monkey CD137
As to the kind of experiment: flow cytometry, cellular CD137; cynomolgus monkey CD137. As for the experimental part: (§3) CHO cells over-expressing human or cynomolgus monkey CD137 and CHO parental cells were harvested by centrifugation at 1000 g for 3 minutes. The cells were resuspended in ice cold assay buffer at 2*10\hat{ }6/mL and transferred to 96-well V-bottom plate with 100 μL/well. […] The plate was mixed and incubated in the dark for 2 hours at 4° C. The cells were washed 3 times by centrifugation at 1000 g for 3 min and resuspended in ice cold assay buffer containing goat F(ab′)₂ anti-human IgG-Fc (PE), 100 μL/well. The plate was incubated in the dark for another 1 hour at 4° C. The cells were washed 2 times by centrifugation at 1000 g for 3 min and resuspended in ice cold assay buffer containing 2% PFA. The cells were then subjected to the flow cytometer immediately.
(§4) Mean fluorescence intensity (MFI) was calculated from the total cell population in the FCM experiments. Graphpad 7.0, “[Agonist] vs. response—Variable slope (four parameters)” was used to plot the binding MFI in dose response and to calculate FCM binding EC₅₀ values.
On the technique in general: Flow cytometry measures light scatter and fluorescence of single cells or particles in a stream.

Test [4] addresses T4, recombinant cynomolgus monkey CD137 receptor protein (cynomolgus monkey, UniProt A9YYE7 24-186).
T4 construct: Coated on ELISA plates; also called Cyno CD137
The test is described as follows: ELISA, cynomolgus CD137 protein coated; average, n=6. As for the experimental part: as §1, §2

Test [5] deals with T1, human CD137 on cells. The test is described as follows: flow cytometry on CHO-human CD137 cells, PE anti-human IgG-Fc. Here is the method: as §3, §4
Target sequence in this assay (Q07011 24-255): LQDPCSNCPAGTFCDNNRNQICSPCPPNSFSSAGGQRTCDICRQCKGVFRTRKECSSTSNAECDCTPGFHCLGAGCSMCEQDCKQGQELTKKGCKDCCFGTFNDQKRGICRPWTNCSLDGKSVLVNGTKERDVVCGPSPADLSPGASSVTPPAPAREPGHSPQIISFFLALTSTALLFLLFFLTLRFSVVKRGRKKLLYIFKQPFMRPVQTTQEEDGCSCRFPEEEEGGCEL
Test [6] concerns the target T5, human FcγRIIIA-Phe158 on CHO-K1 cells (human, UniProt P08637 17-254).
T5 construct: whole, on cells; also called CHO-K1-huFcγRIIIA-Phe158; CHO-huFcγIIIA
As to the kind of experiment: flow cytometry on CHO-huFcγRIIIA cells, PE anti-human Fc F(ab')2. As for the experimental part:
The plate was mixed and incubated in the dark for 2 hours at 4° C.

Test [7] addresses T4, recombinant cynomolgus monkey CD137 …. The test is described as follows: ELISA, recombinant cynomolgus CD137 protein coated, antibody titrated. Here is the method: as §1, §2
Test [8] addresses T6, Ly049.
T6 chain: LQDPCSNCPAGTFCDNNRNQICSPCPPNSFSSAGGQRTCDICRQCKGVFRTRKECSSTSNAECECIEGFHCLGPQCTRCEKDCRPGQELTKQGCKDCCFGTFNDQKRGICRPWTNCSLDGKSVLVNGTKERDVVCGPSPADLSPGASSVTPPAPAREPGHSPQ
As to the kind of experiment: ELISA, CD137 protein coated, clone 3712 titrated; flat curve, fit marked ~ (see non_binding). As for the experimental part: (§5) For the data shown in FIGS. 16C-D, chimeric CD137 receptor protein samples were diluted in DPBS to 5 μg/mL and then coated onto an ELISA plate (Corning, Catalog number: 9018, high binding) at 50 μL (0.25 μg) per well, and incubated at 4° C. overnight. The plate was decanted and washed once; assay diluent was added at 200 μL/well. After a 1-hour incubation at room temperature, the plate was washed with PBST one time. […] The plate was incubated 1 hour at room temperature and then washed three times with PBST. Goat anti-human IgG-H+L HRP-conjugated at 1:100,000 dilution or goat anti-mouse IgG (H+L) secondary antibody, HRP, 10 at 1:50,000 dilution was added to the plate at 100 μL/well. The plate was incubated 1 hour at room temperature followed by washing with PBST four times. The TMB substrate solution was added 100 μL/well. The color was permitted to develop for 15 minutes and then 100 μL/well 2N H2SO4 was added to terminate the reaction. Absorbance at 450 nm and 620 nm was determined by a Tecan F200 Pro reader.

The target in test [9] is T7, Ly051.
T7 chain: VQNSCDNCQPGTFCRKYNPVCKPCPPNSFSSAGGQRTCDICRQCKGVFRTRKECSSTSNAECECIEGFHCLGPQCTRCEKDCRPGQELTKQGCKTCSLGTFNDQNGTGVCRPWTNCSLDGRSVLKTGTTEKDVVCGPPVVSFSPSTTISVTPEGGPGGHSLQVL
Described as above. Here is the method:
as §5

For test [10], the target named is T1, human CD137 on cells. The test is described as follows: flow cytometry on human PBMC pre-activated with anti-CD3, gate on CD8+ T cells (endogenous CD137).
Experimental: To obtain activated T cells in human PBMC, a 24-well plate was coated with 300 μL DPBS containing 2 μg/mL AffiniPure goat anti-mouse IgG, Fcγ fragment specific at 4° C. overnight. The plate was washed 3 times with DPBS. The antibody OKT3 was added to the plate at 1 μg/mL, 100 μL/well. The plate was incubated at 37° C. for 1 hour. A freshly thawed vial of human PBMCs was transferred into a 50 mL tube containing 25 mL pre-warmed culture medium (RPMI1640 containing 10% FBS), and spun at 250 g for 10 min The cell pellet was resuspended in 2 mL complete culture medium (culture medium containing 50 uM 2-Me) and the cell density was adjusted to 3.3*10\hat{ }6 cells/mL in the complete culture medium and then 900 μL/well cell suspension was transferred to the plate. The culture was incubated at 37° C. with 5% CO₂ for about 48 hours. After the incubation, the cells were harvested and washed once with DPBS. The cell pellet was resuspended in cold assay buffer and the cell density was adjusted to 2*10\hat{ }6 cells/mL. 100 μL of the cell suspension was transferred to a 96-well v-bottom plate. […] The plate was incubated in the dark for 30 minutes at 4° C. […] After incubation in the dark for 5 minutes at 4° C., the cells were analyzed on the flow cytometer immediately.
The target of test [11] is T8, Ly110.
T8 chain: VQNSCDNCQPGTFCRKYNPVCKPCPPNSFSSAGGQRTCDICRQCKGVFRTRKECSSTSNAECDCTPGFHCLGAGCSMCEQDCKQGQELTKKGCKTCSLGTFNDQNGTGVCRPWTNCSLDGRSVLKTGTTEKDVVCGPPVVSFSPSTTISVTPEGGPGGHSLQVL
As to the kind of experiment: ELISA, CD137 protein coated, clone 3712 titrated; sigmoid with a low plateau of about 0.45 (huCD137 about 1.5). Here is the method:
as §5

Several values for one entry are separate records, joined by “and”; a condition that tells them apart may be missing. Equal entries are not always repeated.

T4 sequence (A9YYE7 entry or part of it): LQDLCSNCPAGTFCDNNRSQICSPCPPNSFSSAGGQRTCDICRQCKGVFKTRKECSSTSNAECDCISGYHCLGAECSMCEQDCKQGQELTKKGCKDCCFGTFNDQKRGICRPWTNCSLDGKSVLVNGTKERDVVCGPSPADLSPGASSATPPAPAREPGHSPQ
T5 sequence (P08637 17-254): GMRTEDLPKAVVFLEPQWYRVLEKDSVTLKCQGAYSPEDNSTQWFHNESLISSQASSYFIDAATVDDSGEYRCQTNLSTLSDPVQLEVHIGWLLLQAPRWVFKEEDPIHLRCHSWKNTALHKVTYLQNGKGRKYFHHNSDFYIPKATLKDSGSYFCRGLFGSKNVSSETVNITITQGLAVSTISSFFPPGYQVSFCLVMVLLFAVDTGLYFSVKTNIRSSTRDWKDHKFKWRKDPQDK
T3 sequence (A9YYE7 entry or part of it): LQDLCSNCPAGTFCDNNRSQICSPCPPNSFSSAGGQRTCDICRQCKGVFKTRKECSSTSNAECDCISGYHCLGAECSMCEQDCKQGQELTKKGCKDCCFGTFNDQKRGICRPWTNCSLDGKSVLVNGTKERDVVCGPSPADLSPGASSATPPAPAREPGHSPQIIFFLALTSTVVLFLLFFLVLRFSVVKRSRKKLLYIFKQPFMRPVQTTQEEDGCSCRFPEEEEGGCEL

B1: Clone 3712-IgG1v (IgG1v/kappa) (antibody)
heavy: QVQLVQSGAEVKKPGASVKVSCKASGYTFAGFEMHWVRQAPGQGLEWMGAIDPKTGGTDYNQKFKDRVTMTRDTSISTAYMELSRLRSDDTAVYYCARDLGYFDVWGQGTLVTVSSASTKGPSVFPLAPSSKSTSGGTAALGCLVKDYFPEPVTVSWNSGALTSGVHTFPAVLQSSGLYSLSSVVTVPSSSLGTQTYICNVNHKPSNTKVDKKVEPKSCDKTHTCPPCPAPELLGPSVFLFPPKPKDTLMISRTPEVTCVVVDVEHEDPEVKFNWYVDGVEVHNAKTKPREEQYNSTYRVVSVLTVLHQDWLNGKEYKCKVSNKALPAPIEKTISKAKGQPREPQVYTLPPSREEMTKNQVSLTCLVKGFYPSDIAVEWESNGQPENNYKTTPPVLDSDGSFFLYSKLTVDKSRWQQGNVFSCSVMHEALHNHYTQKSLSLSPGK
light: DIQMTQSPSSLSASVGDRVTITCRASQDIRSNLNWYQQKPGGAVKLLIYYTSRLHSGVPSRFSGSGSGTDYTLTISSLQPEDFATYFCQQSEKLPRTFGGGTKVEIRRTVAAPSVFIFPPSDEQLKSGTASVVCLLNNFYPREAKVQWKVDNALQSGNSQESVTEQDSKDSTYSLSSTLTLSKADYEKHKVYACEVTHQGLSSPVTKSFNRGEC
notes: copies: 2 + 2
B1: in test [1], the “IFN-γ secretion of human CD8+ T cells co-cultured with CHO-K1-huFcγRIIB cells and OKT3; average EC50, n=12” value was 30.6 ng/mL and ~0.21 nM. Also, the “IL-8 secretion of CD137 reporter cells (GS-H2-huCD137) co-cultured with CHO-K1-huFcγRIIB cells; average EC50, n=6” value in [1] was 44.4 ng/mL and ~0.31 nM. The EC50 in test [2] is 0.37 nM and 0.0529 µg/mL; in [3] it was about 0.3 nM; in test [4], 0.33 nM and 0.0474 µg/mL; in [8], about 0.903 µg/mL; in test [9] it was about 0.00101 µg/mL; in test [11], 0.0578 µg/mL. The “EC50 (read off the curve)” value in test [5] is about 0.05 µg/mL; in [7], about 0.05 µg/mL; in [10] it was about 0.03 µg/mL. In addition, in [6], the binding result is “no binding (tested: 100 µg/mL)”.
